Patent US20190085092A1

Biological target: STn expressing TAG-72 glycoprotein (human tumor-associated glycoprotein 72) (human) (UniProt Q01973)
Test: flow cytometry on LS174T cells, 5 µg 3E8, detected with mouse anti-human IgG-PE

UniProt Q01973, sequence (Q01973 30-937 limits assumed): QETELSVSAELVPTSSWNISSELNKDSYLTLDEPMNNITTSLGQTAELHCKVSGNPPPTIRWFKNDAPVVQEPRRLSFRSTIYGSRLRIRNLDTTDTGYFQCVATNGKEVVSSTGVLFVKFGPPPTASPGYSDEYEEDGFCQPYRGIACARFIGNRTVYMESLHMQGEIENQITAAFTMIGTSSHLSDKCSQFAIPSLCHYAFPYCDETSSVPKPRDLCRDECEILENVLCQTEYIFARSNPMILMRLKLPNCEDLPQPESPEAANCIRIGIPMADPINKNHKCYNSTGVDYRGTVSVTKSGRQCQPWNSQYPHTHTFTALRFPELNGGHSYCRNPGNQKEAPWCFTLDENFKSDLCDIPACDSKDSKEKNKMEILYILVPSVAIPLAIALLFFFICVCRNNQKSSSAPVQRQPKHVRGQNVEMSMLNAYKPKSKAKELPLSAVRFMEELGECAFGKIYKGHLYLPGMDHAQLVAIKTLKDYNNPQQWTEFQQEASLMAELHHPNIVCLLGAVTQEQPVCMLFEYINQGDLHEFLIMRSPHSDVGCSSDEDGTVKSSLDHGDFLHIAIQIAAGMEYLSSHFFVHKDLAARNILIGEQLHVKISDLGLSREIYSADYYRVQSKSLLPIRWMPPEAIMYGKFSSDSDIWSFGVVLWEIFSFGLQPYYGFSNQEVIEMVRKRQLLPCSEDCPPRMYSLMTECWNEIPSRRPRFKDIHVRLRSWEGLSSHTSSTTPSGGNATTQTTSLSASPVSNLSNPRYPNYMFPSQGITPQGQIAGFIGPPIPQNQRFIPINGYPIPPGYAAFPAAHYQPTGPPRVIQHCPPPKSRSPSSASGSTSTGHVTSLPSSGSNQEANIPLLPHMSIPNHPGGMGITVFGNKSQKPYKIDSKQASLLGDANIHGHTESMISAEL

Substance: STn specific antibody (3E8)
- percent of cells stained: 98%
